From US20260167721A1 (ABLEXIS, published 2026) come the findings set out here.

B1: CD3 × CD33-BspAb72 (bispecific antibody)
chain 1: EVQLVESGGGLVQPGGSLRLSCAASGFTFSSYSMNWVRQAPGKCLEWVSYISSSSSTIYYADSVKGRFTISRDNAKNSLYLQMNSLRDEDTAVYYCARDGPVDYGMDVWGQGTTVTVSSGGGGSGGGGSGGGGSGGGGSSYELTQPPSVSVSPGQTARITCSGDALPKQYTYWYQQKPGQAPVLVIYKDSERPSGIPERFSGSSSGTTVTLTISGVQAEDEADYYCQSADSSGTYRVFGCGTKLTVLDKTHTCPPCPAPEFEGGPSVFLFPPKPKDTLMISRTPEVTCVVVDVSHEDPEVKFNWYVDGVEVHNAKTKPREEQYNSTYRVVSVLTVLHQDWLNGKEYKCKVSNKALPASIEKTISKAKGQPREPQVYTLPPCREEMTKNQVSLWCLVKGFYPSDIAVEWESNGQPENNYKTTPPVLDSDGSFFLYSKLTVDKSRWQQGNVFSCSVMHEALHNHYTQKSLSLSPGK
chain 2: EVQLVQSGAEVKKPGSSVKVSCKASGYTITDSNIHWVRQAPGQSLEWIGYIYPYNGGTDYNQKFKNRATLTVDNPTNTAYMELSSLRSEDTAFYYCVNGNPWLAYWGQGTLVTVSSASTKGPSVFPLAPSSKSTSGGTAALGCLVKDYFPEPVTVSWNSGALTSGVHTFPAVLQSSGLYSLSSVVTVPSSSLGTQTYICNVNHKPSNTKVDKRVEPKSCDKTHTCPPCPAPEFEGGPSVFLFPPKPKDTLMISRTPEVTCVVVDVSHEDPEVKFNWYVDGVEVHNAKTKPREEQYNSTYRVVSVLTVLHQDWLNGKEYKCKVSNKALPASIEKTISKAKGQPREPQVCTLPPSREEMTKNQVSLSCAVKGFYPSDIAVEWESNGQPENNYKTTPPVLDSDGSFFLVSKLTVDKSRWQQGNVFSCSVMHEALHNRFTQKSLSLSPGK
chain 3: DIQLTQSPSTLSASVGDRVTITCRASESLDNYGIRFLTWFQQKPGKAPKLLMYAASNQGSGVPSRFSGSGSGTEFTLTISSLQPDDFATYYCQQTKEVPWSFGQGTKVEVKRTVAAPSVFIFPPSDEQLKSGTASVVCLLNNFYPREAKVQWKVDNALQSGNSQESVTEQDSKDSTYSLSSTLTLSKADYEKHKVYACEVTHQGLSSPVTKSFNRGEC
B2: CD3 × CD33-BspAb77 (bispecific antibody)
chain 1: EVQLVESGGGLVKPGGSLRLSCAASGFTFSTYIMNWVRQAPGKCLEWVSSISSSRSYIYYADSVKGRFTISRDNAKNSLYLQMNSLRAEDTAVYYCAREDRYRLFFDYWGQGTLVTVSSGGGGSGGGGSGGGGSGGGGSNFMLTQPHSVSESPGKTVTISCTRSSGSIASNYVQWYQQRPGSSPTTVIYEDNQRPSGVPDRFSGSIDSSSNSASLTISGLKTEDEADYYCQSYDSSNRVFGCGTKLTVLDKTHTCPPCPAPEFEGGPSVFLFPPKPKDTLMISRTPEVTCVVVDVSHEDPEVKFNWYVDGVEVHNAKTKPREEQYNSTYRVVSVLTVLHQDWLNGKEYKCKVSNKALPASIEKTISKAKGQPREPQVYTLPPCREEMTKNQVSLWCLVKGFYPSDIAVEWESNGQPENNYKTTPPVLDSDGSFFLYSKLTVDKSRWQQGNVFSCSVMHEALHNHYTQKSLSLSPGK
chain 2: B1 chain 2
chain 3: B1 chain 3
B3: CD3 × CD33-BspAb73 (bispecific antibody)
scFv-Fc: EVQLVESGGGLVKPGGSLRLSCAASGFTFSSYSMNWVRQAPGKCLEWVSSVNSRGSYIYYADSVKGRFTISRDNAKDSLYLQMNSLRADDTAVYYCARDRRELLLDYWGQGTLVTVSSGGGGSGGGGSGGGGSGGGGSSYELTQPPSVSVSPGQTARITCSGDALPKKYAYWYQQKSGQAPVLVIYEDSKRPSGIPERFSGSSSGTMATLTISGAQVEDEADYYCYSTDSSGNHSWVFGCGTKLTVLGGGGSDKTHTCPPCPAPEFEGGPSVFLFPPKPKDTLMISRTPEVTCVVVDVSHEDPEVKFNWYVDGVEVHNAKTKPREEQYNSTYRVVSVLTVLHQDWLNGKEYKCKVSNKALPASIEKTISKAKGQPREPQVYTLPPCREEMTKNQVSLWCLVKGFYPSDIAVEWESNGQPENNYKTTPPVLDSDGSFFLYSKLTVDKSRWQQGNVFSCSVMHEALHNHYTQKSLSLSPGK
heavy: B1 chain 2
light: B1 chain 3
notes: KiH heterodimer
B4: CD3 × CD33-BspAb76 (bispecific antibody)
chain 1: EVQLVESGGGLVKPGGSLRLSCAASGFTFSSYSMNWVRQAPGKCLEWVSSISRRSGYIYYADSVKGRFTLSRDNAKKSLYLQMNSLRAEDTAVYYCARDLNWAFDYWGQGTLVTVSSGGGGSGGGGSGGGGSGGGGSNFMLTQPHSVSESPGKTVTISCTRSSGSIASNYVQWYQQRPGSSPTTVIYEDNHRPSGVPDRFSGSIDSSSNSASLTIAGLKTEDEADYYCQSSDSSNVVFGCGTKLTVLDKTHTCPPCPAPEFEGGPSVFLFPPKPKDTLMISRTPEVTCVVVDVSHEDPEVKFNWYVDGVEVHNAKTKPREEQYNSTYRVVSVLTVLHQDWLNGKEYKCKVSNKALPASIEKTISKAKGQPREPQVYTLPPCREEMTKNQVSLWCLVKGFYPSDIAVEWESNGQPENNYKTTPPVLDSDGSFFLYSKLTVDKSRWQQGNVFSCSVMHEALHNHYTQKSLSLSPGK
chain 2: B1 chain 2
chain 3: B1 chain 3
B5: CD3 × CD33-BspAb75 (bispecific antibody)
scFv-Fc: EVQLVESGGGLVKPGGSLRLSCAASGFTFSSYSMNWVRQAPGKCLEWVSSISRRSGYIYYADSVKGRFTLSRDNAKKSLYLQMNSLRAEDTAVYYCARDLNWAFDYWGQGTLVTVSSGGGGSGGGGSGGGGSGGGGSNFMLTQPHSVSESPGKTVTISCTRSSGSIASNYVQWYQQRPGSSPTTVIYEDNHRPSGVPDRFSGSIDSSSNSASLTIAGLKTEDEADYYCQSYDSSNVVFGCGTKLTVLGGGGSDKTHTCPPCPAPEFEGGPSVFLFPPKPKDTLMISRTPEVTCVVVDVSHEDPEVKFNWYVDGVEVHNAKTKPREEQYNSTYRVVSVLTVLHQDWLNGKEYKCKVSNKALPASIEKTISKAKGQPREPQVYTLPPCREEMTKNQVSLWCLVKGFYPSDIAVEWESNGQPENNYKTTPPVLDSDGSFFLYSKLTVDKSRWQQGNVFSCSVMHEALHNHYTQKSLSLSPGK
heavy: B1 chain 2
light: B1 chain 3
notes: KiH heterodimer
B6: CD3 × CD33-BspAb65 (bispecific antibody)
chain 1: NFMLTQPHSVSESPGKTVTIACTRSSGSIASNYVQWYQQRPGSSPTTVIYEDNQRPSGVPDRFSGSIDSSSNSASLTISGLKTEDEADYYCQSYDSSNQVFGCGTKLTVLGGGGSGGGGSGGGGSGGGGSQVTLKESGPGILQPSQTLSLTCSFSGFSLSTFGMGVGWIRQPSGKCLEWLAHIWWDDDKYYNPALKSRLTISKDTSKNQVFLKIANVDTADTATYYCARLGYYPYWFFDVWGTGTTVTVSSDKTHTCPPCPAPEFEGGPSVFLFPPKPKDTLMISRTPEVTCVVVDVSHEDPEVKFNWYVDGVEVHNAKTKPREEQYNSTYRVVSVLTVLHQDWLNGKEYKCKVSNKALPASIEKTISKAKGQPREPQVYTLPPCREEMTKNQVSLWCLVKGFYPSDIAVEWESNGQPENNYKTTPPVLDSDGSFFLYSKLTVDKSRWQQGNVFSCSVMHEALHNHYTQKSLSLSPGK
chain 2: B1 chain 2
chain 3: B1 chain 3

For the first test, the target named is T1, human CD3 (TCR/CD3 complex on the cell surface) (human, UniProt P07766 23-207; P04234 22-171; P09693 23-182).
T1 construct: whole, on cells; Native CD3 on human Pan-T cells or Jurkat wild-type cells; also called CD3 on Pan-T cells; CD3 on Jurkat WT cells
T1 sequence (P07766 23-207, chain 1 of 3): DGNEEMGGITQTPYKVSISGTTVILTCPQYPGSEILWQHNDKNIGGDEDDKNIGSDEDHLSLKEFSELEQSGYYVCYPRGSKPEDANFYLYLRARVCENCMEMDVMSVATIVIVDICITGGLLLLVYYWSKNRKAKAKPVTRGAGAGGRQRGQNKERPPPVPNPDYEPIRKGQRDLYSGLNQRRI
T1 sequence (P04234 22-171, chain 2 of 3): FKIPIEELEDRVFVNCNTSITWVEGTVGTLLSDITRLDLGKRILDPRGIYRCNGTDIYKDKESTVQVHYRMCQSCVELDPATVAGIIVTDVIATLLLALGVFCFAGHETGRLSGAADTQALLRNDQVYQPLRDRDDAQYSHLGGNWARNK
T1 sequence (P09693 23-182, chain 3 of 3): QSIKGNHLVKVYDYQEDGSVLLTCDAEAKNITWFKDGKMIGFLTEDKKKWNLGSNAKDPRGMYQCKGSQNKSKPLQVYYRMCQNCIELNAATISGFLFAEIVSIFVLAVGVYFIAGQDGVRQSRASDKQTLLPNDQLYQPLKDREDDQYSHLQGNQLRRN
Nature of the test: flow cytometry, Pan-T cells, 1 ug/mL. Background: A flow cytometer gives signals particle by particle.
With B1, the “% Positive” value came to 2% and the gMFI turned out to be 2430 gMFI.
In the same order, the values of B2 are 92.5% and 37800 gMFI.
In the same order, the values of B3 are 17.3% and 4180 gMFI.
Regarding B4, the “% Positive” value stood at 50.2% and the gMFI was determined as 6790 gMFI.
On the same counts, the results for B5 are 99.2% and 69800 gMFI.

The next test concerns the target T1, human CD3 (TCR/CD3 complex on the cell …). Nature of the test: flow cytometry, Pan-T cells, 10 ug/mL.
In the case of B1, the “% Positive” value worked out at 66.1% and the gMFI is 8340 gMFI.
In the same order, the values of B2 are 99.8% and 188000 gMFI.
In the same order, the values of B3 are 95.9% and 22000 gMFI.
In the same order, the values of B4 are 99.5% and 43400 gMFI.
B5: the “% Positive” value is 99.7% and the gMFI came to 149000 gMFI.

For the next test the target is unchanged. The experiment in a line: flow cytometry, Jurkat WT cells, 1 ug/mL.
In the case of B1, the gMFI stood at 1950 gMFI.
Same read-out and setting: under B2 stands 8960 gMFI.
On the same count and under the same terms, under B3 stands 2510 gMFI; under B4, 3180 gMFI; under B5, 11300 gMFI.

The target is the same in the next test. The experiment in a line: flow cytometry, Jurkat WT cells, 10 ug/mL.
In the case of B1, the gMFI came to 3760 gMFI.
In turn, B2 showed a gMFI of 22100 gMFI.
With B3, the gMFI came to 6110 gMFI.
Still for that read-out and setting: with B4 the figure was 9780 gMFI; with B5, 15900 gMFI.

A further test has the same target. Nature of the test: flow cytometry, Jurkat WT gMFI over Jurkat KO gMFI, 1 ug/mL.
With B1, the “Jurkat WT/KO (Fold)” value came out at 1 fold.
As to B2, the “Jurkat WT/KO (Fold)” value came out at 3.6 fold.
The same measure, in the same setting: under B3 stands 1.2 fold; under B4, 1.5 fold.
The same measure, in the same setting: under B5 stands 5.3 fold.

Another test has the same target. The experiment in a line: flow cytometry, Jurkat WT gMFI over Jurkat KO gMFI, 10 ug/mL.
As for B1, the “Jurkat WT/KO (Fold)” value was 2 fold.
Still for that read-out and setting: with B2 the figure was 8.6 fold.
For B3, the “Jurkat WT/KO (Fold)” value turned out to be 3 fold.
On the same count and under the same terms, under B4 stands 4.4 fold; under B5, 7.2 fold.

For another test, the target named is recombinant CD3 proteins. The experiment in a line: Octet (BLI), bispecific antibody against recombinant CD3 proteins. (BLI is a label-free optical method that tracks binding on a fibre tip over time.)
Consider B6, for which the equilibrium dissociation constant (Kd) was 11.7 nM, the Response came out at 0.09, the off-rate (koff) came to 0.00134 s⁻¹ and the on-rate constant (kon) came out at 114000 M⁻¹ s⁻¹.

The Kd is the constant that tells how readily two partners part at equilibrium. For orientation: koff means the first-order rate constant of dissociation. For orientation: kon means the second-order rate constant of association.
